In paper PMC4954732:

What was measured:
[1] = target: T1, SrbA bHLHZ (Aspergillus fumigatus) (UniProt Q4WIN1); assay: SPR; details: SPR on immobilised biotinylated duplexes, 1:1 model with mass transport; buffer, salt, pH and temperature not stated (protocols of refs 19, 54)
T1 sequence: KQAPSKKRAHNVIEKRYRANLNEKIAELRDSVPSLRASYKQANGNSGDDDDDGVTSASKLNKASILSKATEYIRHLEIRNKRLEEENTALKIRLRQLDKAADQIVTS

[2] = test system: CBC (HapB/HapC/HapE) (Aspergillus fumigatus); assay: SPR; details: SPR on immobilised biotinylated duplexes, 1:1 model with mass transport; buffer, salt, pH and temperature not stated (protocols of refs 19, 54)

Sequence | Kd [1] [nM] | other results
AGAATCACGCGGTCCG (double strand) [SRE1 (cyp51Ap-320-16)] | 22.8 | 
GCTGAGCCGAATGAATCACGCGGTCCGGATGTGTGCT (double strand) [cyp51A-TR34] |  | fold decrease in affinity (fold lower affinity than cyp51A-293) [2]: 8
CGGCTCAGCACACATC (double strand) [SRE2 (cyp51Ap-295-16)] | 273 | 
GCTGAGCCGAATGAAAGTTGCCTAATTACTAAGGTGT (double strand) [cyp51A-293] |  | Kd [2]: 74.4 nM
